The values that follow are results of earlier work, collected in publication PMC3218432.

This data set concerns the target Asp85 (UniProt position 98, WARYADWLFTT).

What is called pKa is the negative logarithm of the acid dissociation constant. Consider “Bacteriorhodopsin (Halobacterium salinarum (not stated in the article; described as archaeal))”, for which the pKa is given as 2.3.
